Results on 9 molecules are retold here after patent US20250066826A1, “ARTIFICIAL SYNTHESIS METHOD FOR MALONYL-COENZYME A (COA) AND USE THEREOF” (SHANGHAI JIAO TONG UNIVERSITY, priority 2023, published 2025).

Holding throughout (type): biochemical
Series [1] is described as follows: Transaminase activity test using pyruvic acid as a substrate (coupled with MCR-C, NADPH at 340 nm). Particulars: 5 mM pyruvic acid, 5 mM β-alanine, 2.5 mM NADP+, 2.5 mM CoA, 1 M purified transaminase, 10 M MCR-C, pH 7.8, 37° C. An excerpt: It can be seen that the BauA has the best effect (FIG. 4A).
Series [2] is described as follows: Transaminase activity test using oxaloacetic acid as a substrate. Particulars: 5 mM oxaloacetic acid, 5 mM β-alanine, 10 M purified transaminase, 10 M MCR-C, pH 7.8, 37° C.
The nature of series [3]: Transaminase activity test using α-ketoglutaric acid as a substrate. Particulars: 5 mM α-ketoglutaric acid, 5 mM β-alanine, 10 M purified transaminase, 10 M MCR-C, pH 7.8, 37° C.
Series [4] is described as follows: Oxidoreductase activity test (coupled with BauA, increase at 340 nm). Particulars: 1 M purified oxidoreductase, 37° C.; for activity of the target enzyme (in words): in-vitro reaction with 10 M BauA. The procedure:
Oxidoreductase activity test: in-vitro reaction was carried out in a total reaction volume of 200 μL, containing 100 mM Tris buffer (pH 7.8), 2 mM MgCl2, 3 mM DTT, 5 mM pyruvic acid, 5 mM 3-alanine, 2.5 mM NADP^+, 2.5 mM CoA, 10 M BauA, and 1 M purified oxidoreductase, the reaction mixture was cultured at 37° C., and the increase in 340 nm was monitored.

B1: BauA: transaminase from Pseudomonas aeruginosa, amino acid sequence SEQ ID NO: 7 (protein)
chain: MNQPLNVAPPVSSELNLRAHWMPFSANRNFQKDPRIIVAAEGSWLTDDKGRKVYDSLSGLWTCGAGHSRKEIQEAVARQLGTLDYSPGFQYGHPLSFQLAEKIAGLLPGELNHVFFTGSGSECADTSIKMARAYWRLKGQPQKTKLIGRARGYHGVNVAGTSLGGIGGNRKMFGQLMDVDHLPHTLQPGMAFTRGMAQTGGVELANELLKLIELHDASNIAAVIVEPMSGSAGVLVPPVGYLQRLREICDQHNILLIFDEVITAFGRLGTYSGAEYFGVTPDLMNVAKQVTNGAVPMGAVIASSEIYDTFMNQALPEHAVEFSHGYTYSAHPVACAAGLAALDILARDNLVQQSAELAPHFEKGLHGLQGAKNVIDIRNCGLAGAIQIAPRDGDPTVRPFEAGMKLWQQGFYVRFGGDTLQFGPTFNARPEELDRLFDAVGEALNGIA
modifications: The sequence is synthetized.
Take B1: the “activity of the transaminases” value in series [1] amounted to 1.60 µmol/min/mg; in series [2] it was 0.46 µmol/min/mg.

B2: Pyd4: transaminase from Saccharomyces kluyveri, SEQ ID NO: 72 (protein)
chain: MPSYSVAELYYPDEPTEPKISTSSYPGPKAKQELEKLSNVFDTRAAYLLADYYKSRGNYIVDQDGNVLLDVYAQISSIALGYNNPEILKVAKSDAMSVALANRPALACFPSNDYGQLLEDGLLKAAPQGQDKIWTALSGSDANETAFKACFMYQAAKKRNGRSFSTEELESVMDNQLPGTSEMVICSFEKGFHGRLFGSLSTTRSKPIHKLDIPAFNWPKAPFPDLKYPLEENKEANKAEESSCIEKFSQIVQEWQGKIAAVIIEPIQSEGGDNHASSDFFQKLREITIENGILMIVDEVQTGVGATGKMWAHEHWNLSNPPDLVTFSKKFQAAGFYYHDPKLQPDQPFRQFNTWCGDPSKALIAKVIYEEIVKHDLVTRTAEVGNYLFNRLEKLFEGKNYIQNLRGKGQGTYIAFDFGTSSERDSFLSRLRCNGANVAGCGDSAVRLRPSLTFEEKHADVLVSIFDKTLRQLYG
modifications: The sequence is synthetized.
As to B2, the “activity of the transaminases” value in series [3] was 1.15 µmol/min/mg.

B3: Msed_0709: oxidoreductase from Metallosphaera sedula, SEQ ID NO: 13 (protein)
chain: MRRTLKAAILGATGLVGIEYVRMLADHPYIKPTYLAGKGSVGKPYGEIVRWQTVGNVPKEVANQEVKPTDPKLMDDVDIIFSPLPQGAAGPVEEQFAKLGFNVISNSPDHRFDMDVPMIIPEVNPHTVTLIDEQRKRRDWKGFIVTTPLCTAQGAAIPLTPIYQNFKMSGVMITTMQSLSGAGYPGIASLDIVDNALPLGDGYDAKTVKEITRILSEVKRNVQEPGVNEITLDATTHRIATIHGHYEVAYVTFKEDTDVRKVMESMESFKGEPQDLKLPTAPEKPIIVTTQDARPQVFFDRWAGNPPGMSVVVGRLKQVNPRTIRFVSLIHNTVRGAAGGGVLTAELLVEKGYIDKR
modifications: The sequence is synthetized.
In the case of B3, in series [4], the “activity of the target enzyme (in words)” value is “exhibit the activity of the target enzyme”.

B4: PydD2: transaminase from Bacillus megaterium, SEQ ID NO: 10 (protein)
chain: MVQVSQNEKDLRAKDEQYVWHGMKPYSPDATMVATKAKGAWITDEQGNRYLDAMAGLWCVNTGYGRDELALAAYEQLKELAYFPLTQSHVPAIKLAEKLNEMLGDDYVIFFSNSGSEANETAFKIVRQYHQQKGEHSRYKFISRYRGYHGNSMGALAATGQAQRKYKYEPLAPGFIHVAPPDSYRGQDDYDAPKEQLQSVKDIDNVMTWELSETIAAVIMEPIITGGGILLPPQNYMKGVKETCEKHGALLIADEVICGFGRTGEAFGFMNYDVKPDIITMAKGITSAYLPLSATAVKKEIYEAFKDSDQYEYFRHVNTFGGSPAACALALKNLEIMERENLFDRSKQLGAYVLSELTPLIDSHPYVGDVRGKGLLIGIELVADKQTKEPLDVNLVNEVVAKCKSKGVIIGKNGATVAGYNNVLTLSPPLNIEESDIELLLATITYALDSIK
modifications: The sequence is synthetized.
B4: the “activity of the transaminases” value was 0.96 µmol/min/mg in series [1] and 0.49 µmol/min/mg in series [2].

B5: YhxA: transaminase from Bacillus cereus, SEQ ID NO: 11 (protein)
chain: MELMIVQVTEQTQSLKKTDEKYLWHAMRGAAPSPTNLIITKAEGAWVTDIDGNRYLDGMSGLWCVNVGYGRKELARAAFEQLEEMPYFPLTQSHVPAIKLAEKLNEWLDDEYVIFFSNSGSEANETAFKIARQYHQQKGDHGRYKFISRYRAYHGNSMGALAATGQAQRKYKYEPLGQGFLHVAPPDTYRNPEDVHTLASAEEIDRVMTWELSQTVAGVIMEPIITGGGILMPPDGYMEKVKEICEKHGALLICDEVICGFGRTGKPFGFMNYGVKPDIITMAKGITSAYLPLSATAVRREVYEAFVGSDDYDRFRHVNTFGGNPAACALALKNLEIMENEKLIERSKELGERLLYELEDVKEHPNVGDVRGKGLLLGIELVEDKQTKEPASIEKMNKVINACKEKGLIIGKNGDTVAGYNNILQLAPPLSITEEDFTFIVKTMKECLAQL
modifications: The sequence is synthetized.
As to B5, in series [1], the “activity of the transaminases” value turned out to be 0.15 µmol/min/mg.

B6: CCNA_03245: transaminase from Caulobacter vibrioides, SEQ ID NO: 9 (protein)
chain: MLPMPDFGANDLDAFWMPFTPNRRFKRHPRMLSSASGMWYRTPESREVLDATSGLWCVNAGHDRPKIREAIQKQAAEMDYAPCFNMGHPLAFQFASRLAQITPKGLDRIFFTNSGSESVDTALKIALAYHRARGKGTKTRLIGRERGYHGVGFGGISVGGIPKNRMYFGSLLTGVDHLPHTHGLPGNTCAKGQPENGAHLADDLERIVALHDASNIAAVIVEPVAGSTGVLIPPKGYLERLRAICDKHDILLIFDEVITGFGRVGAPFAAERFGVTPDLICMAKGLTNAAVPCGAVAASGKIYDAMMDGADAPIELFHGYTYSAHPLACAAGLATLETYREDDLFARAAGLEGYWQDAMHSLADARHVVDVRNLGLVAGIELEPRPGAPTARAMEVFETCFDEGLLIRVTGDIIALSPPLILEKDHIDRMVETIRRVLGQVD
modifications: The sequence is synthetized.
Take B6: the “activity of the transaminases” value in series [1] was determined as 0.13 µmol/min/mg.

B7: pydD: transaminase from Ureibacillus massiliensis, SEQ ID NO: 71 (protein)
chain: MSDYLSIKEQDKQYVLHSWAKQGSFNPKVIAKAEGVCFWDDAGNRYFDMSSQLVYVNVGHQHPKVLKAFQEIGTYPLAGPSFATKPKSDLSQRIIELAPSNMAKVFYTSGGAEANDHAVKIARMVSGRYKIFSRYRSYHGATFGAGNLTGESRRFAAEPGLPGFVKFEVPYLYREVIDFDSEEAATAYYLGKLRNQILYEGSDTIAAIFIEPIPGSNGVLIPPKGYLEGVRALCDEFGILMICDEVMTGFGRTGKGFAVDHYDFKPDIMTFAKGVTSGYAPLGGVIISEDISRFFDENVLMTGLTYSGHTMCTQIGVANLEVYEEENIFENAEKMGILLKQRLEKLLTFPSIGEIRSIGLFAGVELVKDKATKEPIIQYGLDYGKDPVGLMNKFISMLSANGFYTYSHESTVIIAPPLIITEEQINEAMDIFESTLKQFEKEGLFPEETLSV
modifications: The sequence is synthetized.
As for B7, in series [3], the “activity of the transaminases” value worked out at 0.825 µmol/min/mg.

B8: AptA: transaminase from Acinetobacter pittii, SEQ ID NO: 8 (protein)
chain: MVMFDTDKFSDSEHTLDAVQPNNNMYINYQAHWMPFSANRNFAKDPRMIVGAKGSYLIDDSGREIYDSLSGLWTCGAGHTLPEIQQAVSAQLGQLDYSPAFQFGHPLSFKLADKIVQHMPEKLQHVFFTNSGSESADTAIKMARAYWRIKGKPSKTKLIGRARGYHGVNVAGTSLGGIGGNRKMFGQLMDVDHLPHTLQPNLTFTKGCAETGGVELANEMLKLIELHDASNIAAVIVEPISGSAGCIVPPTGYLQRLREICDQHDILLIFDEVITGFGRLGTWTGAEYFGVTPDILNFAKQVTNGAIPLGGVVASHEIYSAFMQQELPEHAIEFTHGYTYSAHPVACAAALAALEVLEKKNLLAQSAALAPSFEKMLHGLKGAPHVLDIRNCGLIGALQLAPRDGDATIRGFELGMKLWKEGFYVRFGGDTLQFGPMFNGTEADIDRLMNAVGDALYQVN
modifications: The sequence is synthetized.
For B8, the “activity of the transaminases” value in series [1] was 0.90 µmol/min/mg; in series [2], 0.42 µmol/min/mg.

B9: MCR-C: oxidoreductase (malonyl-CoA reductase) from Chloroflexus aurantiacu, SEQ ID NO: 70 (protein)
chain: SATTGARSASVGWAESLIGLHLGKVALITGGSAGIGGQIGRLLALSGARVMLAARDRHKLEQMQAMIQSELAEVGYTDVEDRVHIAPGCDVSSEAQLADLVERTLSAFGTVDYLINNAGIAGVEEMVIDMPVEGWRHTLFANLISNYSLMRKLAPLMKKQGSGYILNVSSYFGGEKDAAIPYPNRADYAVSKAGQRAMAEVFARFLGPEIQINAIAPGPVEGDRLRGTGERPGLFARRARLILENKRLNELHAALIAAARTDERSMHELVELLLPNDVAALEQNPAAPTALRELARRFRSEGDPAASSSSALLNRSIAAKLLARLHNGGYVLPADIFANLPNPPDPFFTRAQIDREARKVRDGIMGMLYLQRMPTEFDVAMATVYYLADRVVSGETFHPSGGLRYERTPTGGELFGLPSPERLAELVGSTVYLIGEHLTEHLNLLARAYLERYGARQVVMIVETETGAETMRRLLHDHVEAGRLMTIVAGDQIEAAIDQAITRYGRPGPVVCTPFRPLPTVPLVGRKDSDWSTVLSEAEFAELCEHQLTHHFRVARWIALSDGARLALVTPETTATSTTEQFALANFIKTTLHAFTATIGVESERTAQRILINQVDLTRRARAEEPRDPHERQQELERFIEAVLLVTAPLPPEADTRYAGRIHRGRAITV
modifications: The sequence is synthetized.
Turning to B9, in series [4] (5 mM pyruvic acid, 5 mM alanine, 2.5 mM NADP+, 2.5 mM CoA, 10 M BauA), the oxidoreductase activity is 2.0 µmol/min/mg. In series [4], the “activity of the target enzyme (in words)” value is listed as “exhibit the activity of the target enzyme”.
